Results taken from the supplement of paper PMC10126150.
± gives the standard deviation of the averaged measurements.

The sequences below were run on ATP (assay: switch fluorescence ratio, 500 uM ATP over buffer (Cy3 cluster intensity, sum of 5 cycles each) (fold (ratio)); higher = stronger signal-on switching upon ATP binding; sequences stand for … in TCGTCGGCAGCGTCAGATGTGTATAAGAGACAGTTTTTTTTTTTTTTTTTTTTTTTTT…TC). Details: aptamer strand: ATP DNA aptamer (quencher-CACCTGGGGGAGTATTGCGGAGGAAGG + anchor), 100 nM annealed; ATP concentration: 500 uM.
Summary of the method: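 Values give the fluorescence ratio for each switch-domain sequence, averaged from per-cluster ratios of summed target-cycle to summed buffer-cycle Cy3 intensity. The Cy3-labelled switching-strand clusters sat on a modified Illumina MiSeq flow-cell, were annealed to 100 nM quencher-labelled ATP aptamer, and were imaged in selection buffer, then after 15 min with 500 uM ATP at 22 °C. Five cycles ran with NaOH stripping and re-annealing between them, and clusters outside 100-1000 RFU were excluded.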
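Also: ATP exposure 15 min at 22 °C before imaging.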

Row | Sequence | switch fluorescence ratio
1 | TCAGGGGTTC | 0.9918 ± 0.0084
2 | TAGATTGGGT | 0.976 ± 0.033
3 | ATGCACGAAG | 1 ± 0.057
4 | TATCTACAAT | 1.01 ± 0.02
5 | GTTGGCGGGT | 1 ± 0.017
6 | TTAATTTGCA | 1.01 ± 0.04
7 | CGAACTTGGA | 0.9882 ± 0.0074
8 | GCAGTCATTA | 1.037 ± 0.0019
9 | TAGTCGTCGT | 1.02 ± 0.0021
10 | TTTATGCCAG | 0.946 ± 0.053
11 | AGTGCCTGCG | 1.02 ± 0.032
12 | TTAGTTTTCT | 0.96 ± 0.013
13 | TTTTGCCGAT | 0.989 ± 0.023
14 | GCGGTGAGAA | 0.983 ± 0.028
15 | AGATTACCTG | 1.02 ± 0.027
16 | TATTAGCTAT | 0.998 ± 0.037
17 | ATAGTTATGT | 1.0153 ± 0.00095
18 | CGATGGGTGC | 0.946 ± 0.015
19 | ACGGGGTTTT | 1.01 ± 0.017
20 | TCCTATGGGG | 0.9886 ± 0.0033
21 | AATCGCAACG | 1.02 ± 0.022
22 | ACGAGGGGGC | 1.24 ± 0.34
23 | TGGGGTCAAG | 0.991 ± 0.01
24 | ATGTGTAGGC | 1.02 ± 0.026
25 | TTATGCTGGG | 0.974 ± 0.012

Row | Sequence | switch fluorescence ratio
26 | TGGTTCGTTT | 0.995 ± 0.055
27 | ACACGAGGCT | 1.04 ± 0.029
28 | TAAAAATGAG | 1.014 ± 0.0069
29 | GATCCTGGGG | 0.974 ± 0.054
30 | TTTCTCGGCT | 1 ± 0.035
31 | TTATGTAATC | 1.19 ± 0.25
32 | AGGGTGGCTA | 1.011 ± 0.0015
33 | TAAAGTGCAT | 1.036 ± 0.0066
34 | TCGGGGCGGA | 0.994 ± 0.038
35 | ACTACTGACA | 1.24 ± 0.04
36 | AGCGGGGAGG | 1.03 ± 0.035
37 | GAGGTTGTCA | 0.958 ± 0.038
38 | TAGGGGTGGT | 0.984 ± 0.032
39 | GCGAAAGGT | 0.9846 ± 0.0017
40 | TAAGTGAGAA | 0.983 ± 0.038
41 | ATTTCGGTCT | 0.9892 ± 0.0049
42 | CATGGCGAAG | 1 ± 0.034
43 | GGTTATTTGA | 0.974 ± 0.028
44 | AAAAAATATT | 1.029 ± 0.0043
45 | CCTTTTGCGC | 1.31 ± 0.012
46 | GAAAGGTCGG | 1.21 ± 0.27
47 | CGAATAATCA | 0.982 ± 0.053
48 | TTAGTTTCTT | 0.999 ± 0.017
49 | AGGGATCCTT | 1.02 ± 0.031
50 | GTGGGCATGG | 0.977 ± 0.022

Row | Sequence | switch fluorescence ratio
51 | GGGTGGAAGC | 1.02 ± 0.018
52 | ATGATTGCGT | 0.991 ± 0.018
53 | TTGGGACTGG | 1.12 ± 0.14
54 | AGTGCCCGTA | 1.02 ± 0.063
55 | CGACGTGTGG | 1.02 ± 0.03
56 | GTTGGTAGGA | 1.01 ± 0.033
57 | GGGGGAGTGT | 0.985 ± 0.026
58 | TTTTGGTTAT | 1.01 ± 0.03
59 | GACAGAGGTG | 1.03 ± 0.031
60 | AGTTTACCGG | 1.01 ± 0.022
61 | CCTTACTTTT | 0.998 ± 0.036
62 | ATAACATGAC | 1.21 ± 0.0044
63 | TTCTATGGAA | 1.01 ± 0.016
64 | AAGGTGAGGG | 1.03 ± 0.02
65 | TTATGGTGCA | 0.99 ± 0.023
66 | AATTGAAAAG | 0.982 ± 0.027
67 | AGGCTGGCTC | 0.98 ± 0.01
68 | TTCTCAATGT | 1.08 ± 0.14
69 | GAAAGGGTGT | 1.03 ± 0.026
70 | AGGCCGGGGG | 0.992 ± 0.025
71 | GGGGCTGGCG | 1.03 ± 0.11
72 | ATTCAGGTTC | 0.996 ± 0.032
73 | GCGAGAGGGT | 0.974 ± 0.025
74 | TAAGGGTGCA | 0.994 ± 0.064
75 | TTTGATGTAC | 1.05 ± 0.013

Row | Sequence | switch fluorescence ratio
76 | AGATTAGGGA | 0.975 ± 0.017
77 | CTCGCTTTTT | 1.2 ± 0.29
78 | GGTAGGGATC | 1.017 ± 0.0042
79 | TAGGATGTA | 0.9643 ± 0.0014
80 | TGTGTTTATT | 1.051 ± 0.008
81 | TTCAAACGAG | 1.01 ± 0.031
82 | TACTTGTTTC | 1.01 ± 0.027
83 | GTATTAATGT | 1.01 ± 0.011
84 | TTTTTATCGG | 1.01 ± 0.024
85 | TTTAGAGGGT | 0.988 ± 0.013
86 | AATGTGGTTG | 0.997 ± 0.013
87 | CTGGGACCTA | 1.02 ± 0.027
88 | GATCGTTTTA | 1 ± 0.022
89 | AGGTGCCTG | 0.971 ± 0.035
90 | TCAAGCACTT | 1.25 ± 0.028
91 | TATTAACGTT | 1.015 ± 0.0039
92 | CGCCTTTACC | 1.18 ± 0.013
93 | AGTCCTGGAG | 0.993 ± 0.044
94 | GCGGTGAGGC | 0.9709 ± 0.0056
95 | TGCGTCTTTG | 1.01 ± 0.034
96 | TTGGGGTGTT | 1 ± 0.031
97 | TTGGTGGCGT | 0.995 ± 0.01
98 | GCTGAAAGGC | 1.09 ± 0.061
99 | GGCTTGAGGG | 0.942 ± 0.033
100 | ATGGTATCAG | 1.007 ± 0.0084
